Source: patent US20240240209A1, “SYNTHESIS OF ENANTIOPURE CIS-A-IRONE FROM A RENEWABLE CARBON SOURCE” (Agency for Science, Technology and Research, priority 2021, published 2024)
Residue numbers refer to the chain shown, from its start. In names and notes the source's numbering stands.

B1: pMT1_E153T: pMT1 with E153T (protein)
chain: MPQEARTPQQQVTADEVGDWYDKFGEVYHLTLGESVHCGLWFPPDAPVPQDMELVTMSSQAQDRYTDYLIETLDPKAGQHLLDIGCGTGRTALKAARQRGIAVTGVAVSKEQIAAANRLAAGHGLTERLTFEVADAMRLPYEDESFDCAWAITSLCHMDRAKALGEAWRVLKPGGDLLVLESVVTEELTEPETALFETLYAANVPPRLGEFFDIVSGAGFHTLSLKDLSANLAMTMNVFALGVYSRRAEFTERFGAEFVDGLLAGLGSAQETLIRKTRFFMATLRKPAV
B2: pMT1_E153I: pMT1 with E153I (protein)
chain: B1 chain with T153I
B3: pMT1_E153V: pMT1 with E153V (protein)
chain: B1 chain with T153V
B4: pMT1_E153K: pMT1 with E153K (protein)
chain: B1 chain with T153K
B5: pMT1_E153Q: pMT1 with E153Q (protein)
chain: B1 chain with T153Q
B6: pMT1_E153N: pMT1 with E153N (protein)
chain: B1 chain with T153N
B7: pMT1_E153M: pMT1 with E153M (protein)
chain: B1 chain with T153M
B8: pMT1_E153L: pMT1 with E153L (protein)
chain: B1 chain with T153L
B9: pMT1_E153S: pMT1 with E153S (protein)
chain: B1 chain with T153S
B10: pMT1_E153P: pMT1 with E153P (protein)
chain: B1 chain with T153P
B11: pMT1_E153R: pMT1 with E153R (protein)
chain: B1 chain with T153R
B12: pMT1_M236T: pMT1 with M236T (protein)
chain: B1 chain with T153E, M236T
B13: pMT1_M236R: pMT1 with M236R (protein)
chain: B1 chain with T153E, M236R
B14: pMT1_M236Q: pMT1 with M236Q (protein)
chain: B1 chain with T153E, M236Q
B15: pMT1_M236K: pMT1 with M236K (protein)
chain: B1 chain with T153E, M236K
B16: pMT1_M236P: pMT1 with M236P (protein)
chain: B1 chain with T153E, M236P
B17: pMT1_M236L: pMT1 with M236L (protein)
chain: B1 chain with T153E, M236L
B18: pMT1_M236V (protein)
chain: B1 chain with T153E, M236V
B19: pMT1_M236N: pMT1 with M236N (protein)
chain: B1 chain with T153E, M236N
B20: pMT1_M236S: pMT1 with M236S (protein)
chain: B1 chain with T153E, M236S
B21: pMT1_M236I: pMT1 with M236I (protein)
chain: B1 chain with T153E, M236I
B22: pMT1_R160I: pMT1 with R160I (protein)
chain: B1 chain with T153E, R160I
B23: pMT1_R160N (protein)
chain: B1 chain with T153E, R160N
B24: pMT1_R160Q: pMT1 with R160Q (protein)
chain: B1 chain with T153E, R160Q
B25: pMT1_R160T: pMT1 with R160T (protein)
chain: B1 chain with T153E, R160T
B26: pMT1_R160L (protein)
chain: B1 chain with T153E, R160L
B27: pMT1_R160W: pMT1 with R160W (protein)
chain: B1 chain with T153E, R160W
B28: pMT1_R160M: pMT1 with R160M (protein)
chain: B1 chain with T153E, R160M
B29: pMT1_R160V: pMT1 with R160V (protein)
chain: B1 chain with T153E, R160V
B30: pMT1_R160S: pMT1 with R160S (protein)
chain: B1 chain with T153E, R160S
B31: pMT1_R160K: pMT1 with R160K (protein)
chain: B1 chain with T153E, R160K
B32: pMT1_R160P: pMT1 with R160P (protein)
chain: B1 chain with T153E, R160P
B33: pMT1_S182T: pMT1 with S182T (protein)
chain: B1 chain with T153E, S182T
B34: pMT1_Y200R (protein)
chain: B1 chain with T153E, Y200R
B35: pMT1_Y200Q: pMT1 with Y200Q (protein)
chain: B1 chain with T153E, Y200Q
B36: pMT1_Y200S: pMT1 with Y200S (protein)
chain: B1 chain with T153E, Y200S
B37: pMT1_Y200T: pMT1 with Y200T (protein)
chain: B1 chain with T153E, Y200T
B38: pMT1_Y200K: pMT1 with Y200K (protein)
chain: B1 chain with T153E, Y200K
B39: pMT1_Y200V: pMT1 with Y200V (protein)
chain: B1 chain with T153E, Y200V
B40: pMT1_Y200M: pMT1 with Y200M (protein)
chain: B1 chain with T153E, Y200M
B41: pMT1_Y200W: pMT1 with Y200W (protein)
chain: B1 chain with T153E, Y200W
B42: pMT1_Y200I: pMT1 with Y200I (protein)
chain: B1 chain with T153E, Y200I
B43: pMT1_Y200N (protein)
chain: B1 chain with T153E, Y200N
B44: pMT1_Y200P: pMT1 with Y200P (protein)
chain: B1 chain with T153E, Y200P

Test: Cell lysate reaction of pMT enzymes with psi-ionone, irones quantified by HS-SPME-GCMS
Format: biochemical
Conditions: pMT1_E153 mutants; AUC vs non-mutated (=1)
Procedure, shortened: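 pMT1 site-saturation mutants were expressed in E. coli BL21(DE3) and lysed, and lysates were incubated 2 days at 28 °C with 0.2 mM SAM and 10 mg/L psi-ionone (plus caryophyllene) in 50 mM Tris pH 7, 10 mM MgCl2. Cis-α-irone was measured by HS-SPME-GCMS peak area and given as fold change over non-mutated enzyme.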

Molecule | fold change in cis-α-irone produced
B1 | 0.0
B2 | 0.0
B3 | 0.0
B4 | 0.0
B5 | 0.0
B6 | 0.0
B7 | 0.0
B8 | 0.0
B9 | 0.0
B10 | 0.0
B11 | 0.0

Same assay, conditions: pMT1_M236 mutants; AUC vs non-mutated (=1)

Molecule | fold change in cis-α-irone produced
B12 | 1.7
B13 | 0.0
B14 | 0.0
B15 | 0.0
B16 | 0.0
B17 | 1.1
B18 | 0.7
B19 | 3.9
B20 | 0.7
B21 | 0.5

Same assay, conditions: pMT1_R160 mutants; AUC vs non-mutated (=1)

Molecule | fold change in cis-α-irone produced
B22 | 1.5
B23 | 0.8
B24 | 1.3
B25 | 1.2
B26 | 0.9
B27 | 0.7
B28 | 0.9
B29 | 1.5
B30 | 0.0
B31 | 0.0
B32 | 0.6

Same assay, conditions: pMT1_S182 mutants; AUC vs non-mutated (=1)

Molecule | fold change in cis-α-irone produced
B33 | 0.23

Same assay, conditions: pMT1_Y200 mutants; AUC vs non-mutated (=1)

Molecule | fold change in cis-α-irone produced
B34 | 0.0
B35 | 0.1
B36 | 0.2
B37 | 0.0
B38 | 0.0
B39 | 1.1
B40 | 0.4
B41 | 2.1
B42 | 2.0
B43 | 0.0
B44 | 0.0
